The results in this text go back to publication PMC3319784.

Test [1] addresses first Sam domain of Odin (Odin-Sam1) (human) (UniProt Q92625). The test is described as follows: ITC. In general terms: In ITC the heat of successive injections is recorded.
For test [2], the target named is Sam domain of the EphA2 receptor (EphA2-Sam), wild type (human) (UniProt P29317). In words: SPR.

As usually defined, the Kd is the concentration at which binding is half-saturated. A word on the stoichiometry N: it is the number of molecules, sites or subunits per partner or assembly. In test [1], “Sam domain of the EphA2 receptor (EphA2-Sam), wild type (from UniProt P29317 902-976) (domain or fragment)” displayed a dissociation constant (Kd) of 0.62 µM and a stoichiometry N of 1.

B1: first Sam domain of Odin (Odin-Sam1) (domain or fragment)
chain: ISGLRTLEQSVGEWLESIGLQQYESKLLLNGFDDVHFLGSNVMEEQDLRDIGISDPQHRRKLLQAARSLPKVKALGYDGN
For B1, the dissociation constant Kd in test [2] was 5.5 µM.
